Source: patent US20020022718A1, “Genes identified as required for proliferation of E. coli” (priority 1999, published 2002)

Test system: Klebsiella pneumoniae
Test: Growth inhibition by induced E. coli antisense RNA in Klebsiella pneumoniae
Format: cell-based
Design: key: +: a positive in Table V below means that at least 10 fold more cells were required to observe a colony on the induced plate than on the non-induced plate; −: If there was no effect of antisense RNA expression in a microorganism, the clone is minus in Table V below
Conditions: antisense RNA expression induced with IPTG, serial dilution plating
Description: To study the effects of transcriptional induction in liquid medium, growth curves were carried out by back diluting cultures 1:200 into fresh media with or without 1 mM IPTG and measuring the OD450 every 30 minutes (min). To study the effects of transcriptional induction on solid medium, 10^2, 10^3, 10^4, 10^5, 10^6, 10^7 and 10^8 fold dilutions of overnight cultures were prepared. Aliquots of from 0.5 to 3 μl of these dilutions were spotted on selective agar plates with or without 1 mM IPTG. After overnight incubation, the plates were compared to assess the sensitivity of the clones to IPTG.
Molecule No. EcXA190, encoding a portion of the b3052 gene of Escherichia coli, was either transformed directly into Enterobacter cloacae, Salmonella typhimurium and/or Klebsiella pneumoniae or subcloned into an expression vector functional in these species and the subclones transformed into these organisms. Suitable expression vectors are well known in the art. These expression vectors were introduced into Enterobacter cloacae, Salmonella typhimurium and/or Klebsiella pneumoniae cells that were then assayed for growth inhibition according to the method of Example 1. After growth in liquid culture, cells were plated at various serial dilutions and a score determined by calculating the log difference in growth for INDUCED vs. UNINDUCED antisense RNA expression as determined by the maximum 10 fold dilution at which a colony was observed. If there was no effect of antisense RNA expression in one organism, the clone is given a score of zero “0” in that organism. In contrast, a score of “8” means that 10^8 times more cells were required to observe a colony formed on the induced state than in the non-induced state under the conditions used and in that organism.
In addition, the above methods were validated using other antisense nucleic acids which inhibit the growth of E. coli which were identified using methods similar to those described above. Expression vectors which inhibited growth of E. coli upon induction of antisense RNA expression with IPTG were transformed directly into Enterobacter cloacae, Klebsiella pneumonia or Salmonella typhimurium. The transformed cells were then assayed for growth inhibition according to the method of Example 1. After growth in liquid culture, cells were plated at various serial dilutions and a score determined by calculating the log difference in growth for INDUCED vs. UNINDUCED antisense RNA expression as determined by the maximum 10 fold dilution at which a colony was observed. If there was no effect of antisense RNA expression in a microorganism, the clone is minus in Table V below. In contrast, a positive in Table V below means that at least 10 fold more cells were required to observe a colony on the induced plate than on the non-induced plate under the conditions used and in that microorganism.

Molecule | Sensitivity of K. pneumoniae to antisense nucleic acid (growth inhibition, induced vs. uninduced)
EcXA125: antisense clone insert to E. coli yiiL (nucleic acid, listed as Escherichia coli) antisense: TGTCGGTAAACAATGACAATTTGAGACAGAGTGAAAGGTCAGATTTGCGGAGTAATGCACATAATGGTTATTTAAATAAACCACATGAATCATTAATGGGTTATTCATTATTTTTGTGATTTACTCACAATGTATCAGGGAAATATAACTTACCGGGAGATGTAATATGTTTAATTTTTCAAATCGAAATTTAAAATATTGTGCCGGAGGCATCTCTGGCACATTGGGCAATTACGGCA | −
EcXA137: antisense clone insert to E. coli proA, thrW (nucleic acid, listed as Escherichia coli, misc_feature (1)...(729): n = A,T,C or G, antisense clone insert to E. coli proA, thrW) antisense: CTTTTTACGGACAAACAATCATGCAACCAGAAGTTGAAGTATTAACCGATCATAATGAGCTAATTTGTTCGAGCTTTATTGAACACATTGCCAACACATTAAATTTAGGAGTGGTGTACAACTAAACCTGCAGCCAAGGATGTATAGTGAGCGAAGCCCTATCAGGCCTTTTTGGTCAGTAGATAAGATTGATCTTCGTTGATAGAATTTACTTACACCAGCTGTTACATTAAGATAATTTTTTGGTGGGAGAATGATAAGATCTTACGTAACAATTTGATTTTAATGGTGCCGATAATAGGAGTCGAACCTACGACCTTCGCATTACGAATGCGCTGCTCTACCAACTGAGCTATATCGGCCCTGAAAGGACATGTTCACGAACGTGAATCACGGTGGACAAGGTTAAAACTAACCGGGCGATGCGTCAATGGCCTTGTGAATCAAATGGCTACTTTTGCATCACCCGGTTTTATTTACGCACGAATGGTGTAATCACCAATGCCGATCCACTTGTAAGTGGTCAAGTGCTTNCAGCCCCATTGGGCCACGCGCCGTGGAGTTTTTGTGTGCTTACCGGCACTTTCGCACCCAGACCAAACTGGCCGCCGTCGGTAAAACGCGTAGAGGCGTTACGTAAACAGCGGACGAATCCACTTCGTNACAAAACGCTTGGCGTTGGCATATCGCGGGTCANGATCGCAATCGGAGTGTTGTGTGCCCGGGTTN | −
EcXA130: antisense clone insert to E. coli atpE, atpB (nucleic acid, listed as Escherichia coli) antisense: CATCATCACAGCGGCAGCCATGTACAGCAGATCCATATTCAGGTTTTCCATGACAGTCTCCAGTTTGTTTCAGTTAAAACGTAGTAGTGTTGGTAAATTAATGTTCTTCAGACGCCATCGACAGATAGACGATCGTCAGAACCATGAAGATGAAGGCTTGCAGCGTAATGATCAGGATGTGGAAAATGGCCCACGGCACATTCAGGATCCACTGTGACCACCACGGCAACAGACCAG | −
EcXA138: antisense clone insert to E. coli yhaC (nucleic acid, listed as Escherichia coli) antisense: AGCCATTGTCCGGAGAATTTTCGTCTTTCTCGAGGGTATTATCTGAAAGTAACTCTTCTGAGCTAGAGTCTTCTATGTTTAAATCCATAGTATAATTAATTTGGGGGACGACCAGATAAGCATTTTCTTTGGTATTTTCATAATCTTCAATGATTATATCCGATGTAATCATATATTTTTTCTGATGAGAATTCTTTCATCTCTGTTAATTTAATTCTGTTCAAGCAATTGATGATTTTCGATGAGCTTTTATATATTTCTTTTGTTAATTCATTTTCTAATTTATCTGTAAGAGTTGCCCTTGG | −
EcXA132: antisense clone insert to E. coli narV (nucleic acid, listed as Escherichia coli) antisense: GGAGAGCGAAGGGCTATCCGGCCAGGGTGAAATTATCGCCGCGAACGCACAATTTGATATCGACGAGTAAAGTACTCAAACGGCGCGCTCCACACATGCACCAGTCGGGTGAACGGGAAGAGCAGGAAGATGGTCATTCCCAACACCAGATGCAGGCGGAAGACGAACGCTACGCCGTTGAGCATCTCTGACGATCCACCACGGAAAGTGA | −
EcXA121: antisense clone insert to E. coli yjfQ (nucleic acid, listed as Escherichia coli) antisense: TGATCGATCAGGTAATTTGCCAGCGGTAGATAATTAGTGATGATTTGCACTGGCTTGCCACACATTTCCCGCCCAAGCAGAAACGCGGTGGAGCCGCAGTTGATGACTACGCTTTCGCCCGGATTAACCAGCTGCGAGGCCGCTTTAGCGATACGTACTTTTTCATCGTGATTCTGCGCCTGATGCAGATTCATCGGCGTCCAGCGCGGGCGCTGTTGGGTAATAGCTTCTGCGCCATTGCGCACTTTTTTCAGTTTGCCGCTTTCGTCAAGTTTATTGA | −
EcXA126: antisense clone insert to E. coli yicC (nucleic acid, listed as Escherichia coli) antisense: CGATGTTCTGAATCTGCTCGCGCATCTGCTCAATCAACACTTTCAGCTCGATGGCGGAGTTTGTCACTTCGGCATTGATAGACTTCGACGCAAGAGTGTTCGACTCGCGGTTGA | −
EcXA129: antisense clone insert to E. coli yadC, yadK (nucleic acid, listed as Escherichia coli) antisense: GTATTACAACAAGAATACAGTGCTAAAAAAAGAATGTACCTGAAGATAGTCTTCATTTTTACTCCAATGTTTCTTTATTGTTATGGTTTGCGCTGTTTTTGTTTGTTATTCGTAGTAAATATCCACTAACACATGGCTCATAAGTTGACCAGATGTAACACTCAATGCAGGATCGATTTTTTGCATTCGGGTGCTAAATTTCCAGGATGAACCATTCATGTCATCCGACATTACTGG | −
EcXA123: antisense clone insert to E. coli yheL (nucleic acid, listed as Escherichia coli) antisense: CTGGTTTTAGCTTTTGCTTCGTAAACACGTAATAAAACGTCCTCACACAATATGAGGACGCCGAATTTTAGGGCGATGCCGAAAAGGTGTCAAGAAATATACAACGATCCCGCCATCACCAGGCCATCTGGCTGGGG | −
EcXA128: antisense clone insert to E. coli nagE (nucleic acid, listed as Escherichia coli) antisense: CGCTGGAAAAAACCTAAAATATTCATCTTATTCCCCCTACGAGAACCCTATTTGGCTCGTTTCAAGCCGTATTTTTATTTTGCTGCAAATTGTACTGCCGATGTTCTGTAATCAGATTGTTAGATCATCTGCTACAGAGTGTGTGAAAATTTAATTCGTATCGCAAATTAAACGCGTGTCTTTTGTGAGTTTTGTCACCAAATATCGTTATTATCACTCCCTTTTACTGGCTAAACCAGAAAACTTATTT | −
EcXA139: antisense clone insert to E. coli b0874 (nucleic acid, listed as Escherichia coli) antisense: AGGTTACTGGCGAGGTTATCGAGAAACGCCAGACTGATACCCATAAAAAAGAGAATAAGGTAAACCATCCAGCTTAATAGCTGATTAATAACTTTTAACGCAGCTTGTTGGCGAAGCGGAATGAGGTAACCCACAATCAGGGGAACCAGAATGATTAACAGCCCAGAAAACATGAAAACCCAGTCCTTGCAAAGATGAAGTCGAAATGCGCGATGACACACTACTGAAAGCGGAAGGACGAGTAAAGTTGCAATTAAAAGGAAATGTTATGCATAAGGAGCAGTAGAGTATTCGTTTTCATTTAAAGATATTCTTGCGCTTTAATTACAAACTGCACCGATGTTGGTGGCGTCAAAATCGCCGAGGCGTTCCCTGAAGGCCGGGGCAGCCCACATGGATGTGGGCTGAGGGCGCGTTTTACAGGG | −
